# Results taken from patent US20120115948A1.
# Biological target: mitotic APC (Anaphase-Promoting Complex immunoprecipitated from mitotic Xenopus extract) (Xenopus)
# Assay: immunoprecipitated APC-Cdc20 resuspended in mitotic extract with TAME, beads re-isolated, Western blot
substance,measurement,value
Cdc20 (endogenous Xenopus Cdc20),half-life of dissociation,1 min
